In article PMC10956426, “Lipid-Binding Regions within PKC-Related Serine/Threonine Protein Kinase N1 (PKN1) Required for Its Regulation” (Biochemistry, 2024):
Values joined by “and” are separate entries in the source; they are usually repeats but may differ in a detail not shown here. Equal values may be shown once.

Columns and labels:
[1] = target: the molecule itself; experiment: SEC; Superdex-200 Increase (10/300 GL), 50 mM Tris-HCl pH 7.5, 150 mM NaCl, 0.075% Brij-35; native conditions
[2] = target: the molecule itself; experiment: SEC; 25 mL Sephacryl 200 (S-200) column, 20 mM phosphate buffer pH 7.4, 150 mM NaCl, 4 °C; refolded PKN1-(C2); calibrated column
[3] = target: the molecule itself; experiment: MALDI-TOF mass spectrometry; sinapinic acid matrix in 70% acetonitrile, 0.05% TFA; positive ion-linear mode

B1: PKN1-(25–485) (domain or fragment)
chain: not shown
notes: PKC-related serine/threonine protein kinase N1 (PKN1), rat, residues 25-485 (HR1 and the AlphaFold-defined C2 region 310-473); The pET15b-PKN1-(25–485) plasmid was synthesized commercially; the vector probably adds an N-terminal His tag, and no cleavage is described; also called histidine-tagged PKN1 (residues 25–485)
- stoichiometry N [1]: 3

B2: PKN1-(C2)-(342–605) (domain or fragment)
chain: not shown
notes: PKC-related serine/threonine protein kinase N1 (PKN1), rat, residues 342-605 (C2-like domain and part of the hinge region), amplified by PCR from rat liver; Cloned between NdeI and XhoI of pET15b; this vector probably adds an N-terminal His tag with a thrombin site, and no cleavage is described; also called PKN1-(342–605); histidine-tagged PKN1 (residues 342–605)
- stoichiometry N [2]: 3 and 4
- stoichiometry N [3]: 2
